B1: Late transcription coactivator (Enterobacteria phage T4), P13338 (parent)
chain: MTQFSLNDIRPVDETGLSEKELSIKKEKDEIAKLLDRQENGFIIEKMVEEFGMSYLEATTAFLEENSIPETQFAKFIPSGIIEKIQSEAIDENLLRPSVVRCEKTNTLDFLL

Variants of: B1
Details: with rpob_ecoli rpoB

| Variant | effect of a mutation on the interaction |
| --- | --- |
| MTQFSLNDIRPVDETGLSEKELSIKKEKDEIAKLLDRQENGFIIEKMVEEFGMSYLEATTAFLEENSIPKTQFAKFIPSGIIEKIQSEAIDENLLRPSVVRCEKTNTLDFLL [E70K] | decreasing interaction strength |

Source: IntAct's records for PubMed 22135460
